Measured values as given in patent US8598081B2, “Specific delivery of agrochemicals” (priority 2010, dated 2013).

Test system: gum arabic
Assay: VHH binding to gum arabic in ELISA
Set-up: species or system acacia tree
Protocol: Titration of VHH antibody fragments was performed on ELISA plates (Maxisorp, Nunc) coated with 100 μl per well 100 μg/ml gum arabic in 50 mM carbonate pH 9.6. Plates were coated at 4° C. overnight and coating was continued at room temperature for 1 hour on the next day. Plates were washed three times with PBS/0.05%-TWEEN®-20 and blocked with 5% skimmed milk in PBS for 1 hour. Four-fold serial dilutions of purified VHH antibody fragments were prepared in 1% MPBS/0.05%-TWEEN®-20 in polypropylene 96-well plates. Antibody concentrations ranged from 3 μg/ml to 12 ng/ml. Antibody dilutions were transferred to the gum arabic-coated plates and VHH antibody fragments were allowed to bind for 1 hour at room temperature. Bound VHH were detected with sequential incubations with monoclonal mouse anti-histidine antibodies (Abd Serotec) and rabbit anti-mouse IgG whole molecule antibodies conjugated with alkaline phosphatase (RaM/AP) (Sigma) in 1% MPBS/0.05%-TWEEN®-20. Unbound antibodies were removed by washing three times with PBS/0.05%-TWEEN®-20 after each antibody incubation. The plates were washed an additional two times with PBS and 100 μl pNPP disodium hexahydrate substrate (Sigma) was added to each well. The absorbance at 405 nm was measured and plotted as function of antibody concentration (see Table 1).

B1: VHH 3E6: VHH binding gum arabic, potato lectin and leaf surface; SEQ ID NO:7 by order of the list (protein, listed as Lama glama)
VHH: QVQLQESGGGLVQPGGTLSLSCAASGFNVRWYGMGWFRQAPGKEREGVACISALQETTAYADSVKGRFTLSRDNPKNTLSLQMNNLQPEDTGVYYCATTDCDDSSRMTYTSYLGQGTQVTVSS
modifications: 3E6
In the case of B1, the “absorbance at 405 nm” value (Table 2, gum arabic coating, VHH 3 μg/ml) is reported as 0.882 and the “absorbance at 405 nm” value ([VHH] 3 μg/ml (200 nM), gum arabic − (well without gum arabic)) is reported as 0.090.
